In publication PMC10709637, “Phospholipids are imported into mitochondria by VDAC, a dimeric beta barrel scramblase” (Nature Communications, 2023):

Columns and labels:
[1] = target: T1, human VDAC2 (Voltage Dependent Anion Channel 2), N-terminal hexahistidine tagged (human), P45880; assay: vesicle occupancy statistics (Poisson analysis of the dithionite channel assay); different amounts of protein reconstituted into a fixed quantity of LUVs; fraction of vesicles with a channel against PPR*, one-phase exponential fit; MW 31 kDa, vesicle diameter 150 nm; conditions: remark: other sources report otherwise
T1 chain: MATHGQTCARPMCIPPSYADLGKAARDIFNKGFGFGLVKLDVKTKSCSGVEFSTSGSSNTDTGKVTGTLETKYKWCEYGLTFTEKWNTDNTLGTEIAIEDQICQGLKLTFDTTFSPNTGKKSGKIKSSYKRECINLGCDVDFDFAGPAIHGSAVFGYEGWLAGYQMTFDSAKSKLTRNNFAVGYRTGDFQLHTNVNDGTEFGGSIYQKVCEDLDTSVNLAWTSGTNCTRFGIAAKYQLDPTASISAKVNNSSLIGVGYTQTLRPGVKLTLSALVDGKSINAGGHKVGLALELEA

[2] = target: the molecule itself; assay: cross-linking; EGS cross-linking after reconstitution into LUVs (POPC/POPG) in 10 mM MOPS/KOH pH 7.0, 100 mM KCl; 16x mole excess of EGS, 20 °C, 40 min; SDS-PAGE immunoblot (anti-His for human VDAC, anti-VDAC1/Porin for yeast porin)
[3] = target: T2, C-terminal Twin-Strep-tagged yeast VDAC (Por1-TS) (S. cerevisiae), P04840; assay: as above; conditions: remark: other sources report otherwise
T2 chain: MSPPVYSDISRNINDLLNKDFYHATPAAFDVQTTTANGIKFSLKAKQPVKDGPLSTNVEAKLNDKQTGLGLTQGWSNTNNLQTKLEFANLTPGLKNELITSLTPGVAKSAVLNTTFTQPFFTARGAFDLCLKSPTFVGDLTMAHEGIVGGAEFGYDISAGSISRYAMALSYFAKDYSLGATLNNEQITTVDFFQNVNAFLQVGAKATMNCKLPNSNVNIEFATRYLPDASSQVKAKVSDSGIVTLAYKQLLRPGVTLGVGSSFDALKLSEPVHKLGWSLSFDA

B1: human VDAC2 (Voltage Dependent Anion Channel 2), N-terminal hexahistidine tagged, P45880 1-294 (natural protein)
chain: MATHGQTCARPMCIPPSYADLGKAARDIFNKGFGFGLVKLDVKTKSCSGVEFSTSGSSNTDTGKVTGTLETKYKWCEYGLTFTEKWNTDNTLGTEIAIEDQICQGLKLTFDTTFSPNTGKKSGKIKSSYKRECINLGCDVDFDFAGPAIHGSAVFGYEGWLAGYQMTFDSAKSKLTRNNFAVGYRTGDFQLHTNVNDGTEFGGSIYQKVCEDLDTSVNLAWTSGTNCTRFGIAAKYQLDPTASISAKVNNSSLIGVGYTQTLRPGVKLTLSALVDGKSINAGGHKVGLALELEA
B1 was tested, and the stoichiometry N [1] was 10.

B2: human VDAC1 pentamutant VDAC1-5V (T60V, Y62V, E73V, T83V, S101V), N-terminal hexahistidine tagged (natural protein, UniProt P21796 1-283, looked up)
chain: MAVPPTYADLGKSARDVFTKGYGFGLIKLDLKTKSENGLEFTSSGSANTETTKVTGSLEVKVRWTEYGLTFTVKWNTDNTLGVEITVEDQLARGLKLTFDVSFSPNTGKKNAKIKTGYKREHINLGCDMDFDIAGPSIRGALVLGYEGWLAGYQMNFETAKSRVTQSNFAVGYKTDEFQLHTNVNDGTEFGGSIYQKVNKKLETAVNLAWTAGNSNTRFGIAAKYQIDPDACFSAKVNNSSLIGLGYTQTLKPGIKLTLSALLDGKNVNAGGHKLGLGLEFQA
notes: human VDAC1 with five substitutions to valine; pCold vector
B2: binds [2].

B3: C-terminal Twin-Strep-tagged yeast VDAC (Por1-TS), P04840 1-283 (natural protein)
chain: MSPPVYSDISRNINDLLNKDFYHATPAAFDVQTTTANGIKFSLKAKQPVKDGPLSTNVEAKLNDKQTGLGLTQGWSNTNNLQTKLEFANLTPGLKNELITSLTPGVAKSAVLNTTFTQPFFTARGAFDLCLKSPTFVGDLTMAHEGIVGGAEFGYDISAGSISRYAMALSYFAKDYSLGATLNNEQITTVDFFQNVNAFLQVGAKATMNCKLPNSNVNIEFATRYLPDASSQVKAKVSDSGIVTLAYKQLLRPGVTLGVGSSFDALKLSEPVHKLGWSLSFDA
With B3 the stoichiometry N [3] was 2.
